Test results from paper doi:10.1101/2024.12.16.628271.

Key:
[1] = molecular target: Corynebacterium glutamicum PafA (proteasome accessory factor A; Pup ligase) (Corynebacterium glutamicum) (UniProt Q8NQE1); test: SEC-MALS
[2] = molecular target: Corynebacterium glutamicum PafA (proteasome accessory factor A; Pup ligase) (Corynebacterium glutamicum) (UniProt Q8NQE1); test: HDX-MS
[3] = molecular target: Corynebacterium glutamicum PafA (proteasome accessory factor A; Pup ligase) (Corynebacterium glutamicum) (UniProt Q8NQE1); test: SEC

## Corynebacterium glutamicum PafA (proteasome accessory factor A; Pup ligase) (from UniProt Q8NQE1 1-482) (enzyme)
[1]
  stoichiometry N: 2
[2]
  average k open of PafA dimer dissociation (HDX-MS, EX1): 0.06 h⁻¹
[3]
  Kd: > 1100 µM
  koff: 4.72e-05 s⁻¹
